Targets include factor inhibiting HIF (UniProt Q9NWT6 1-349); KDM1A (human, UniProt O60341 1-852); KDM5C (human, UniProt P41229 1-1560).
Assay in all cases: cell-based or functional assay
In test [1] the target is prolyl hydroxylase domain 2 (UniProt Q9GZT9 1-426).
Test [2] has as its target T1, N-terminally Hexa-His-tagged KDM4A (residues 1–359) (human, UniProt O75164 1-359).
T1 sequence (looked up): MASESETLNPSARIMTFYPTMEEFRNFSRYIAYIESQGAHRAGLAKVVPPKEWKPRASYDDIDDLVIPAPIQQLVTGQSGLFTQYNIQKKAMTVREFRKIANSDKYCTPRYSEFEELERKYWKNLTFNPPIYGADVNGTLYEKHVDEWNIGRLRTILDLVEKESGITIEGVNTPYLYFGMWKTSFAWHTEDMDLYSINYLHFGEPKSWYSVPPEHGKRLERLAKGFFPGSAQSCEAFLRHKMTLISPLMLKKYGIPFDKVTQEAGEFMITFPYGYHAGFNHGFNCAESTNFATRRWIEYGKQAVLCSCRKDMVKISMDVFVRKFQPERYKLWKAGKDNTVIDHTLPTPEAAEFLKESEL

The target in another test is T2, KDM2A (human, UniProt Q9Y2K7 1-1162).
T2 sequence (looked up): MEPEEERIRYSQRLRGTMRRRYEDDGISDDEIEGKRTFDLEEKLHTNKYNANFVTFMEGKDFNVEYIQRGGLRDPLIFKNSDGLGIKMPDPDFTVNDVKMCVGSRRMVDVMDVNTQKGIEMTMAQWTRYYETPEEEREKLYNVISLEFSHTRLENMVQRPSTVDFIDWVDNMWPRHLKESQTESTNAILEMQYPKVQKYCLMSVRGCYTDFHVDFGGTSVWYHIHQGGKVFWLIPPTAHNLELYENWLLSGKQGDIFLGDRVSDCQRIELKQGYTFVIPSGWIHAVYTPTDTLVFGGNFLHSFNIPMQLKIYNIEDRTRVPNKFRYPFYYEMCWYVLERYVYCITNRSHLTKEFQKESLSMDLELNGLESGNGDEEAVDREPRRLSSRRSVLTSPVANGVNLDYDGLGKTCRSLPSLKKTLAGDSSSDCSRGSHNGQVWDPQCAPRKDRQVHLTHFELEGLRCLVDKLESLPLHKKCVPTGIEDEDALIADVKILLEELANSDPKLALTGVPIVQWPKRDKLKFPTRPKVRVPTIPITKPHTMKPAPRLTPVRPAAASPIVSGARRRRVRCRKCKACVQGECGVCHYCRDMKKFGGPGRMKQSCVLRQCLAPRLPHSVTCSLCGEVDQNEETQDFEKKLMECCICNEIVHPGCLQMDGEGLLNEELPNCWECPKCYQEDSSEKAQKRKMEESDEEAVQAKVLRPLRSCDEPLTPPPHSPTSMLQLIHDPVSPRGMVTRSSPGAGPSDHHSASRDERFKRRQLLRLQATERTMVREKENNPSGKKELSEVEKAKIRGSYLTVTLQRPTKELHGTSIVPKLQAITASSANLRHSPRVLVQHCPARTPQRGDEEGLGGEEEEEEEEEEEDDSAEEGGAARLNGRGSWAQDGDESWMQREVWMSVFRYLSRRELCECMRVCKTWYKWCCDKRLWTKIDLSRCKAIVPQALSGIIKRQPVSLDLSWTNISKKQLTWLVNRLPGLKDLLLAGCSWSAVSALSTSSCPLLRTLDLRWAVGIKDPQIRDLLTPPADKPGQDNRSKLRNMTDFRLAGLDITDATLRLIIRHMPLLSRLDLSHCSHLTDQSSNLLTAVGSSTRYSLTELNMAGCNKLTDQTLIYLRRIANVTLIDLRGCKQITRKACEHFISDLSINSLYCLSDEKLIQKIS

In another test the target is T3, KDM4B (human, UniProt O94953 1-1096).
T3 sequence (looked up): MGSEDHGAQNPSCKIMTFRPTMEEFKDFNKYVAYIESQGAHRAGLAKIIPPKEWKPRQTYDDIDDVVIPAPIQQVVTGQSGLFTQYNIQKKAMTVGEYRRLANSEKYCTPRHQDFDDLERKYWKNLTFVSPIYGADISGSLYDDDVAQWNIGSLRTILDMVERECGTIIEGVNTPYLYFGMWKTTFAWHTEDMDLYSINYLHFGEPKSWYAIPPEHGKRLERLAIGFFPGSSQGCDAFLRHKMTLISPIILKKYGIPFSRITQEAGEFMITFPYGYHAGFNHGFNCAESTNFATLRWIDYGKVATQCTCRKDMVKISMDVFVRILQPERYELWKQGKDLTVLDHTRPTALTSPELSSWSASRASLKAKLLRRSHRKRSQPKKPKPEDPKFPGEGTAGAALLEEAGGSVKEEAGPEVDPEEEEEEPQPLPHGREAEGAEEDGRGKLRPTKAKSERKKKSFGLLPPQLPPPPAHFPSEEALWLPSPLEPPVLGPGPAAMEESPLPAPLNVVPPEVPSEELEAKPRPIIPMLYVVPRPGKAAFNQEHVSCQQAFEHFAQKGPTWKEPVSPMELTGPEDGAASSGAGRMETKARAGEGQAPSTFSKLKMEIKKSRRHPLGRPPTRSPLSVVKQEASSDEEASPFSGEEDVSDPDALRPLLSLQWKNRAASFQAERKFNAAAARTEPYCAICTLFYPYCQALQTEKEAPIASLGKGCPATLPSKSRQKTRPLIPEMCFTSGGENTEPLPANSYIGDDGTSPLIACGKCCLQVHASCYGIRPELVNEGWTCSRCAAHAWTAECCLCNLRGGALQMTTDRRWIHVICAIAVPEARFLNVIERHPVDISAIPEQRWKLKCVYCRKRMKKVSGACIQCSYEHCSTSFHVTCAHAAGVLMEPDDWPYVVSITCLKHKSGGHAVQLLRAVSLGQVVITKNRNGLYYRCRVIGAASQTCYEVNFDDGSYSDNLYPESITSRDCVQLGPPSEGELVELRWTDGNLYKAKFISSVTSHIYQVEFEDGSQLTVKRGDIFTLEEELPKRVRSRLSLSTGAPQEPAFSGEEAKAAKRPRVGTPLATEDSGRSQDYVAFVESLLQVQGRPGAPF

Sequence of prolyl hydroxylase domain 2 (Q9GZT9 whole entry, the tested form may be a part): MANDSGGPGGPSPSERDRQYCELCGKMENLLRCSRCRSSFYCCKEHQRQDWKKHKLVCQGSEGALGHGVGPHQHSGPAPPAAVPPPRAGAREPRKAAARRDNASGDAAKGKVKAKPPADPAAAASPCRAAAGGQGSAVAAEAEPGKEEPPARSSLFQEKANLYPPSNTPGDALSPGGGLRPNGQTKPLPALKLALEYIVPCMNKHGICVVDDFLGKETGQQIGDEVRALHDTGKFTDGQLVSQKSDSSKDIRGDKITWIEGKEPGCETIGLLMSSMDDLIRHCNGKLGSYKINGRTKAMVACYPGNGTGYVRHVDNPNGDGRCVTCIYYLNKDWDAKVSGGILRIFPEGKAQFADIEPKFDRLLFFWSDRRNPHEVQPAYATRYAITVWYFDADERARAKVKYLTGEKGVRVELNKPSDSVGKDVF
Sequence of factor inhibiting HIF (Q9NWT6 whole entry): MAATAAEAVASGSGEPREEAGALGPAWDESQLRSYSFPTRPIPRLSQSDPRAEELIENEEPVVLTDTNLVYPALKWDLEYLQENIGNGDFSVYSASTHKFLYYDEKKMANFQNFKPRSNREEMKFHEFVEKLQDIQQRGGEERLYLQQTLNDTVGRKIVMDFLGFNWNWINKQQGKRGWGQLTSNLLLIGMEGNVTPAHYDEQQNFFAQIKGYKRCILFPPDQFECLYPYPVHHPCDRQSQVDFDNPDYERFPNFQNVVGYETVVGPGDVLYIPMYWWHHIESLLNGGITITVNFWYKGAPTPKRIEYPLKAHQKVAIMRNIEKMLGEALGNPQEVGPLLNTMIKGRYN
Sequence of KDM5C (P41229 whole entry): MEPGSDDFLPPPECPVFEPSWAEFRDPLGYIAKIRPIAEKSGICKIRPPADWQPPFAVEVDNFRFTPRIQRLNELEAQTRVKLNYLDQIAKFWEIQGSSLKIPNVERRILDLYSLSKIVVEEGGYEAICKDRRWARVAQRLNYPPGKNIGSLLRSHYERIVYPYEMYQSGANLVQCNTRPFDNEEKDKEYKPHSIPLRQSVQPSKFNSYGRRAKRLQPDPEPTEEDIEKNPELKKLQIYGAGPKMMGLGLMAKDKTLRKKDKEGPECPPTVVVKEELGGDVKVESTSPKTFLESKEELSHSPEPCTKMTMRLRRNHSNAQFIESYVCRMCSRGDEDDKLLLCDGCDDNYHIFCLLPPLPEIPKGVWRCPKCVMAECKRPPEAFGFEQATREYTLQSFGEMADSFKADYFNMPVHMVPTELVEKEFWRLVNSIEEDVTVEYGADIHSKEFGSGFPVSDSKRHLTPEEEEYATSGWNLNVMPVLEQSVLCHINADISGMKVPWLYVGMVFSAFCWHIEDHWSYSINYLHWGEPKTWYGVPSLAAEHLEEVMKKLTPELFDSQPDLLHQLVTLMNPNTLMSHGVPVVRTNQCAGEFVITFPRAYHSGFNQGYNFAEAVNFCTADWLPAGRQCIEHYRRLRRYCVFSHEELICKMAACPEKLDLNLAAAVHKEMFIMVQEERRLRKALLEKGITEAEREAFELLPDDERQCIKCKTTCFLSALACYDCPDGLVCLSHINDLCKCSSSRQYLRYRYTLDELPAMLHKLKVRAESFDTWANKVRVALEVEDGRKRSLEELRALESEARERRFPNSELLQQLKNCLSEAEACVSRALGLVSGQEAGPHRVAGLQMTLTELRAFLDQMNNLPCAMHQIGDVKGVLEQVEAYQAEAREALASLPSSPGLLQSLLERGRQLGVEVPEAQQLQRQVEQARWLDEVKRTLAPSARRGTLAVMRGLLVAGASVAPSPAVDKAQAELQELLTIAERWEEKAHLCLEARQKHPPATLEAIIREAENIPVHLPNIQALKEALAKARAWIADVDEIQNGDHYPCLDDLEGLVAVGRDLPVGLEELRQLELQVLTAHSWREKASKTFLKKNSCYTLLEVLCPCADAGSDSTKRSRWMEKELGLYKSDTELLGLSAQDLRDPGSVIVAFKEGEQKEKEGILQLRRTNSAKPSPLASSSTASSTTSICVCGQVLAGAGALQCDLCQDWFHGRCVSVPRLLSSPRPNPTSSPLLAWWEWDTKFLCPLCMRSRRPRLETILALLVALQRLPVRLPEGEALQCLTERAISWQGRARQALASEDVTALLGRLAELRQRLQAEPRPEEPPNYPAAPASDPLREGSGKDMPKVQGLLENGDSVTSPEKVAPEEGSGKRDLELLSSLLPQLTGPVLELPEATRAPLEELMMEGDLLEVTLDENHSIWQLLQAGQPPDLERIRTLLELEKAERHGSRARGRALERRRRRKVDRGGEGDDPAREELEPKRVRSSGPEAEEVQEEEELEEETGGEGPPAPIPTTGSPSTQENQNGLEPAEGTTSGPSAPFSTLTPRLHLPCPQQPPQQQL

B1: CP4 (peptide)
chain: YLKSRRSGLTWIPC
modifications: not fully specified; N-terminal L-Tyr (^LTyr library, N-chloroacetyl-L-Tyr) cyclised by a thioether to a downstream cysteine
As to B1, the “IC50 of inhibition of FIH (MALDI–TOF MS assay)” value with factor inhibiting HIF was above 1000 µM. Also, the “IC50 of inhibition of PHD2 (MALDI–TOF MS assay)” value in test [1] was above 1000 µM. Also, the “IC50 of inhibition of KDM1A/LSD1 (fluorescence-based assay)” value with KDM1A is above 10 µM. Besides, the “IC50 of inhibition of demethylase activity (AlphaScreen activity assay)” value in test [2] was 0.02 µM; with KDM2A it was above 10 µM; in the test with KDM5C, above 10 µM; with KDM4B it was 0.006 µM.

These data come from paper PMC5384220, “Highly selective inhibition of histone demethylases by de novo macrocyclic peptides” (Nature Communications, 2017).
